This note sets out measurements from patent US20240360176A1 (MARSHALL UNIVERSITY RESEARCH, published 2024).

For the experiment, the target named is Src kinase (human, endogenous in the HCC cell lines HEP3B and SNU475) (human, UniProt P12931 2-536, phosphorylation read out with a polyclonal antibody to Tyr419 of Src kinase). Nature of the experiment: cell-based or functional assay.

B1: pNaKtide (peptide)
peptide: not shown
For the molecule B1, the “cell proliferation (MTT assay), IC50, Hep3 cells” value was found to be 62.5 µM and the “cell proliferation (MTT assay), IC50, SNU475 cells” value is 6 µM.
